Assay results reported in the supplement of paper PMC10724198.
± gives the standard deviation of the averaged measurements.

Tests used:
Saccharomyces cerevisiae [1] = assay: protein stability index of tFT-peptide fusion in wild type (PSI (0-1 scale)); higher = more stable (slower turnover); conditions: genetic background: wild type
Method: (§1)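 MPS profiling in S. cerevisiae of two library types built from selected 12-aa C-degron peptides (IN1, IN2, LN1, LN3, VN2, R1-R5, W1-W3, Atg1 and Rpa12 C-termini): saturation mutagenesis libraries and C-terminal +1 capping libraries (13 aa). Each peptide is fused to the C-terminus of a sfGFP-mCherry timer, after a GGGS linker. Cells are FACS-sorted into 8 mCherry/sfGFP bins and sequenced. PSI runs from 0 (unstable) to 1 (stable), measured once in wild type and in the das1Δ or doa10Δ background.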

Saccharomyces cerevisiae [2] = assay: protein stability index of tFT-peptide fusion in deletion strain of DAS1 (PSI (0-1 scale)); higher = more stable (slower turnover)
Method: as §1

Saccharomyces cerevisiae [3] = assay: protein stability index of tFT-peptide fusion (C-terminal peptide) (PSI (0-1 scale)); higher = more stable (slower turnover); conditions: temperature: 30 C
Method: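 MPS profiling in S. cerevisiae of the yeast C-terminome library: the last 12 aa of each annotated ORF are fused to the C-terminus of a sfGFP-mCherry timer, after a GGGS linker. Cells are FACS-sorted into 8 mCherry/sfGFP bins and deep-sequenced. PSI runs from 0 (unstable) to 1 (stable); wild type and das1Δ backgrounds, two technical replicates each.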

[4] = genetic background: das1 deletion
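For protein stability index of tFT-peptide fusion in deletion strain of DAS1 in this document: PSI is a weighted mean of each variant's read distribution over the sorted stability bins, computed only for variants having over 10 reads in total.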
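For protein stability index of tFT-peptide fusion in wild type in this document: PSI derived as read-weighted mean over the 8 sorting bins, only variants exceeding 10 total reads kept, mCherry placed adjacent to the peptide and sfGFP distal.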

LKILRQKMNHYN
protein stability index (Saccharomyces cerevisiae [1]): 0.223
protein stability index (Saccharomyces cerevisiae [2]): 0.657

RLIQPGPVQFLN
protein stability index (Saccharomyces cerevisiae [1]): 0.102
protein stability index (Saccharomyces cerevisiae [2]): 0.611

ARWRVGHWRGAS
protein stability index (Saccharomyces cerevisiae [1]): 0.582
protein stability index (Saccharomyces cerevisiae [2]): 0.703

LKILRSKMNHQN
protein stability index (Saccharomyces cerevisiae [1]): 0.208
protein stability index (Saccharomyces cerevisiae [2]): 0.666

PSLAASFWRVVGW
protein stability index (Saccharomyces cerevisiae [1]): 0.714
protein stability index (Saccharomyces cerevisiae [2]): 0.699

ARWRVGLWRGAL
protein stability index (Saccharomyces cerevisiae [1]): 0.596
protein stability index (Saccharomyces cerevisiae [2]): 0.682

RLSQPLPVQFLN
protein stability index (Saccharomyces cerevisiae [1]): 0.0622
protein stability index (Saccharomyces cerevisiae [2]): 0.607

PSLAASFWRVIG
protein stability index (Saccharomyces cerevisiae [1]): 0.151
protein stability index (Saccharomyces cerevisiae [2]): 0.677

VGGAVGGWRLVG
protein stability index (Saccharomyces cerevisiae [1]): 0.156
protein stability index (Saccharomyces cerevisiae [2]): 0.67

AYWRVGLWRGAS
protein stability index (Saccharomyces cerevisiae [1]): 0.449
protein stability index (Saccharomyces cerevisiae [2]): 0.699

LKILRQKMAHQN
protein stability index (Saccharomyces cerevisiae [1]): 0.178
protein stability index (Saccharomyces cerevisiae [2]): 0.673

KKHKKGQKQKIQ
protein stability index (Saccharomyces cerevisiae [1]): 0.37
protein stability index (Saccharomyces cerevisiae [2]): 0.594

LVVYLSCVACINE
protein stability index (Saccharomyces cerevisiae [1]): 0.0198
protein stability index (Saccharomyces cerevisiae [2]): 0.0324

PSLANSFWRVVG
protein stability index (Saccharomyces cerevisiae [1]): 0.269
protein stability index (Saccharomyces cerevisiae [2]): 0.711

LKILRQKMNHQT
protein stability index (Saccharomyces cerevisiae [1]): 0.252
protein stability index (Saccharomyces cerevisiae [2]): 0.671

PDKRNHLICLLN
protein stability index (Saccharomyces cerevisiae [1]): 0.269
protein stability index (Saccharomyces cerevisiae [2]): 0.608

CTSCGYPFRTNN
protein stability index (Saccharomyces cerevisiae [1]): 0.677
protein stability index (Saccharomyces cerevisiae [2]): 0.723

FSMRWTMRYWVN
protein stability index (Saccharomyces cerevisiae [1]): 0.0449
protein stability index (Saccharomyces cerevisiae [2]): 0.482

LVVYGSCVACIN
protein stability index (Saccharomyces cerevisiae [1]): 0.245
protein stability index (Saccharomyces cerevisiae [2]): 0.305

LVVQLSCVACIN
protein stability index (Saccharomyces cerevisiae [1]): 0.0253
protein stability index (Saccharomyces cerevisiae [2]): 0.0857

CTSCGYIFRTNN
protein stability index (Saccharomyces cerevisiae [1]): 0.233
protein stability index (Saccharomyces cerevisiae [2]): 0.706

PDKRNKLIKLLN
protein stability index (Saccharomyces cerevisiae [1]): 0.115
protein stability index (Saccharomyces cerevisiae [2]): 0.671

QLIQPLPVQFLN
protein stability index (Saccharomyces cerevisiae [1]): 0.0736
protein stability index (Saccharomyces cerevisiae [2]): 0.616

ALNDIAKASYIY [CTK3 C-terminal 12 aa]
protein stability index (Saccharomyces cerevisiae [3]; [4]): 0.677 ± 0.034
protein stability index (Saccharomyces cerevisiae [3]; genetic background: wild type): 0.648 ± 0.016

FIFYSILPTNVI [YPR123C C-terminal 12 aa]
protein stability index (Saccharomyces cerevisiae [3]; [4]): 0.594 ± 0.013
protein stability index (Saccharomyces cerevisiae [3]; genetic background: wild type): 0.645 ± 0.029

LDKVGKKKGGKK [LRP1 C-terminal 12 aa]
protein stability index (Saccharomyces cerevisiae [3]; [4]): 0.701 ± 0.049
protein stability index (Saccharomyces cerevisiae [3]; genetic background: wild type): 0.689 ± 0.025

DEELHPLSDEGM [DPP1 C-terminal 12 aa]
protein stability index (Saccharomyces cerevisiae [3]; [4]): 0.691 ± 0.011
protein stability index (Saccharomyces cerevisiae [3]; genetic background: wild type): 0.726 ± 0.061

PGVMLGRWKVTA [VPS61 C-terminal 12 aa]
protein stability index (Saccharomyces cerevisiae [3]; [4]): 0.612 ± 0.013
protein stability index (Saccharomyces cerevisiae [3]; genetic background: wild type): 0.356 ± 0.0069

SLIPRFDNLLSK [GGC1 C-terminal 12 aa]
protein stability index (Saccharomyces cerevisiae [3]; [4]): 0.7062 ± 0.0052
protein stability index (Saccharomyces cerevisiae [3]; genetic background: wild type): 0.732 ± 0.015

ATCGSSTYFARK [MCO8 C-terminal 12 aa]
protein stability index (Saccharomyces cerevisiae [3]; [4]): 0.6938 ± 0.0026
protein stability index (Saccharomyces cerevisiae [3]; genetic background: wild type): 0.746 ± 0.054

ILFSFFCNLVAK [VTC4 C-terminal 12 aa]
protein stability index (Saccharomyces cerevisiae [3]; [4]): 0.524 ± 0.011
protein stability index (Saccharomyces cerevisiae [3]; genetic background: wild type): 0.4997 ± 0.0011

SFTDVLGQEQFI [YLR252W C-terminal 12 aa]
protein stability index (Saccharomyces cerevisiae [3]; [4]): 0.7269 ± 0.0054
protein stability index (Saccharomyces cerevisiae [3]; genetic background: wild type): 0.699 ± 0.031

CVAGAHFESLLD [YNL144W-A C-terminal 12 aa]
protein stability index (Saccharomyces cerevisiae [3]; [4]): 0.702 ± 0.0074
protein stability index (Saccharomyces cerevisiae [3]; genetic background: wild type): 0.744 ± 0.03

VRKGQEKSKKHS [SEI1 C-terminal 12 aa]
protein stability index (Saccharomyces cerevisiae [3]; [4]): 0.678 ± 0.01
protein stability index (Saccharomyces cerevisiae [3]; genetic background: wild type): 0.737 ± 0.06
